# Source: paper PMC10467048
# What was measured:
# [1] = target: LTB−JEV EDIII (TEV cut) (not stated | Japanese encephalitis virus); experiment: PAGE under non-reduced conditions (without boiling, without DTT)
# [2] = target: LTB−JEV EDIII (TEV cut) (not stated | Japanese encephalitis virus); experiment: PAGE after incubation at different temperatures
# [3] = target: LTB−JEV EDIII (TEV cut) (not stated | Japanese encephalitis virus); experiment: SEC
# [4] = target: CTB−JEV EDIII (not stated | Japanese encephalitis virus); experiment: PAGE under non-reduced conditions (without boiling, without DTT)
# [5] = target: CTB−JEV EDIII (not stated | Japanese encephalitis virus); experiment: PAGE after incubation at different temperatures
Substance,stoichiometry N [1],stoichiometry N [2],stoichiometry N [3],stoichiometry N [4],stoichiometry N [5]
LTB−JEV EDIII (TEV cut),5,5,5,,
CTB−JEV EDIII,,,,5,5
